# Data reported in patent US20040048243A1, “Methods and compositions for in vitro targeting” (priority 2003, published 2004).
# No end group written: not given here.
# Legend:
# [1] = tested on: cells infected by targeted phage vectors; experiment: Enhancement of phage transduction by genotoxic agents or genetic trans-complementation; assay type: cell-based; conditions: genotoxic drug 10 μM added 36 hours after infection, analysis at 72 hours post-infection
# Description: Semi-confluent cells were infected with 10^5 TU of phage per cell for 4 hours in serum free media, after which fresh medium supplemented with FCS was added (no phage were washed out or removed). In some experiments, a phage admixture of forward and reverse clones at 10^10 TU (forward/reverse molar ratio=1) was tested. Next, cells were incubated for 36 hours followed by the addition of genotoxic drugs (topotecan, 10 μM; cisplatin, 10 μM) or administration of UV radiation (15 J/m^2) with a cross-linker apparatus (UV Stratalinker Model 2400; Stratagene). At 72 hours post-infection, the cells were analyzed for transduction of a reporter gene (β-gal or GFP), and gene expression was normalized per cell number relative to controls.
# [2] = target: T1, rhAngiostatin (Homo sapiens, UniProt P00747); experiment: Panning of CX7C phage library on rhAngiostatin (clone frequency); assay type: binding; conditions: clones sequenced after panning on rhAngiostatin
# T1 construct: rh-Angiostatin and rh-Endostatin were produced by EntreMed, Inc; purchased EntreMed, Inc. (Rockville, Md.)
# Description: (§1) A phage library displaying random cyclic peptides with the structure CX7C (C, cysteine; X, any residue) was prepared. An aliquot of the library containing 3×10^10 transducing units (TU) was screened with rhAngiostatin protein coated on microtiter wells as described (Koivunen et al 1993). In the first and second panning the amount of protein used was 10 μg/well. To increase the stringency of panning, the wells were coated with a decreased concentration of rhAngiostatin protein (100 ng/well) in the third panning. Phage remained bound after extensive washing. Bound phage were recovered by infection into F-pilus positive K91 bacteria. To determine the specificity of rhAngiostatin binding, selected phage were assayed as described but using rh-Endostatin and BSA proteins to coat the wells. In all assays, insertless phage (fdtet) was used as a control.
# (§2) Phage were sequenced from randomly selected clones after three rounds of panning (Koivunen et al., 1994, 1995; Pasqualini et al., 1995). A number of distinct angiostatin-targeting sequences were identified (Table 10). Randomly selected clones from rounds II and III were sequenced. Amino acid sequences of the phagemid encoded peptides were deduced from nucleotide sequences. A consensus sequence appeared on the third round in 61% of the sequences examined (26 out of 42)—CWSLEXXKC (SEQ D NO: 141). Including the closely related sequence CWSAEWTKC (SEQ ID NO: 142) the consensus motif accounted for 71% of Angiostatin binding peptides. The ratios in the last two columns of Table 10 were calculated by dividing the number of colonies recovered from rhAngiostatin-coated wells by those recovered from rh-Endostatin or BSA wells.
# [3] = tested on: antibodies present in the serum; experiment: ELISA of sera on immobilized GST-fusion peptides; assay type: binding, human; conditions: for reactivity of serum against peptide in presence of the corresponding synthetic peptide: data not shown; for ELISA reactivity of patient serum with GST-fusion peptide: serum of the patients selected for the screenings, GST alone as negative control
# Description: A 20 μg/ml solution of purified GST or GST-fusion proteins in 0.1M NaHCO3 was used to coat maxisorp multi-well plates (Nalge Nunc International Corporation) and incubated overnight at 4° C. The plates were blocked in a blocking buffer (4% milk, 2% casein, and 0.05% Tween-20) for 3-4 hours. A series of […] (1:100-1:1200) of sera from prostate cancer patients or healthy individuals was added and incubated for 1.5 hours and then washed five times with washing buffer (1% milk, 0.5% casein, and 0.025% Tween-20), followed by incubation at 4° C. with anti-human allaline phosphatase-conjugated antibodies (Gibco). The plates were then washed six times in washing buffer and developed using p-NPP (Sigma) as a substrate. An automatic ELISA plate reader (BIO-TEK instrument) recorded the results at OD405 nm.
# Probabilities of survival for each group were estimated using the Kaplan-Meier method. A log-rank test was implemented in order to detect significant differences between the groups. Reactivity was considered to be detected if the ratio between GST-peptide and GST alone was greater or equal to two by the ELISA data. The Cox proportional hazards model was applied to analyze the effect of single and multiple risk factors in association with survival. Martingale residual plots were used to assess the proportional hazard assumption. P-values less than 0.05 were considered significant. All analyses were performed using SPLUS statistical software.
# ELISA was performed to assess if the peptides could be specifically recognized by the antibodies present in the serum of the patients selected for the screenings. Peptides A (CHQKPWEC, SEQ ID NO: 58), B (CKDRFERC, SEQ ID NO: 59), and C (CNVSDKSC, SEQ ID NO: 60) were produced as GST-fusion proteins and immobilized onto microtiter wells, along with GST alone as a negative control. For each sample tested, a series of 100-fold dilutions was performed. […] The reactivity of each serum against peptides A, B and C was inhibited by the corresponding synthetic peptides (data not shown).
# The reactivity profile of 91 sera obtained from clinically annotated prostate cancer patients was examined. Sera from 34 healthy individuals were also tested as a control for specificity. ELISA was performed to evaluate each serum using the three selected peptides (A, B, and C). The sera obtained from patients with prostate cancer were divided into three groups: 35 originated from patients with localized adenocarcinomas, 27 from patients with metastatic androgen-dependent disease, and 29 originated from patients with metastatic androgen-independent disease.
# [4] = tested on: IgG from the ovarian cancer patient; experiment: Binding of phage to IgGs isolated from ovarian cancer patient ascites or serum; design: species or system human
# Text: FIG. 22. Binding of phage containing the CVPELGHEC (SEQ ID NO: 271) and CFELGFELGC (SEQ ID NO: 272) targeting peptides to IgG's isolated from ovarian cancer patient #2 ascites, normal serum and BSA.
# FIG. 23. Binding of phage containing the CVPELGHEC (SEQ ID NO: 271) targeting peptide to IgG's isolated from normal serum or from ascites of ovarian cancer patient #1 or #2. Control fd-tet phage contained no insert DNA.
# FIG. 24. Binding of phage containing the CVPELGHEC (SEQ ID NO: 271) targeting peptide to IgG's isolated from serum of ovarian cancer patient #2, normal serum or BSA.
# To select peptides specific to the ascitic fluid of ovarian cancer patients, IgGs from normal donor serum and ovarian cancer cell free ascitic fluid were bound to Protein agarose (Pierce) in the Pierce acetate, pH5 binding buffer. A two step biopanning procedure was employed in which the first step involved pre-clearing the phage peptide library by incubating it with IgGs isolated from normal donor serum in order to remove common antigens. This was followed by a second step where the pre-cleared library was used to screen cancer specific IgGs. Approximately 10^8 transforming units were added to the IgGs for the panning procedure. The resultant IgG-bound phage were recovered by eluting the phage with 0.1M glycine buffer, pH2.2, neutralizing the phage with 0.1 volume 1 M Tris-Cl, pH 9, and using the phage to infect stationary phase Escherichia coli strain K91. Serial dilutions of phage infected-K91 were plated onto tetracycline (40 μg/ml) LB agar plates and grown overnight at 37° C. Individual clones were picked, amplified, and precipitated for subsequent rounds of panning. A total of three rounds of selection were performed. Phage clones from the second and third rounds were subject to PCR followed by sequence analysis to evaluate enrichment of the most consistently binding peptide sequences.
# [5] = target: CD13 (Aminopeptidase N); experiment: competition against rhAngiostatin binding to coated CD13, 0.5 µg peptide; not shown
# [6] = target: T2, rhAngiostatin (human, UniProt P00747 98-357, limits assumed); experiment: phage binding to coated wells; colonies from rhAngiostatin wells divided by those from rh-Endostatin wells
# Description: as §1, with “CX₇C” for “CX7C”, “3×10¹⁰” for “3×10^10”
# as §2, with “CWSAEWTKC” left out
# [7] = target: T2, rhAngiostatin; experiment: phage binding to coated wells; colonies from rhAngiostatin wells divided by those from BSA wells
# Description: as §1, with “CX₇C” for “CX7C”, “3×10¹⁰” for “3×10^10”
# as §2, with “CWSAEWTKC” left out
# T1 sequence (P00747 79-466 limits assumed): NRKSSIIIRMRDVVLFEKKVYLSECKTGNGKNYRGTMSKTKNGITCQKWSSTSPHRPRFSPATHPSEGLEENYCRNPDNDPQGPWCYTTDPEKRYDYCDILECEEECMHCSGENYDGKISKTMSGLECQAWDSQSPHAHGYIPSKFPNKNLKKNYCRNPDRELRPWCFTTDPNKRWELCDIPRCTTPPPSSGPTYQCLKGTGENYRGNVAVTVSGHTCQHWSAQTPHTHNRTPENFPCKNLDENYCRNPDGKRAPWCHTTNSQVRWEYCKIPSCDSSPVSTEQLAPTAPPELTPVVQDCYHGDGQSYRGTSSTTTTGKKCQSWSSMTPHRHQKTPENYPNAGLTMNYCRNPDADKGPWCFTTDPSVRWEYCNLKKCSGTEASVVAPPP
# T2 sequence (P00747 98-357 limits assumed): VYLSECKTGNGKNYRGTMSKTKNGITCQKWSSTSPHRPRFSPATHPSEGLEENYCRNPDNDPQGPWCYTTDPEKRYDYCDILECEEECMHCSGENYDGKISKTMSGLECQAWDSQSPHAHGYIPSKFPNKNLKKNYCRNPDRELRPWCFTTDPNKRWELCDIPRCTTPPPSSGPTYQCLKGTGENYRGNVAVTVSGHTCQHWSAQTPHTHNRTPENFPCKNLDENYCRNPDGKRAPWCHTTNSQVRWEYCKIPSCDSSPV
# Sequence of CD13 (Aminopeptidase N) (P15145 2-963): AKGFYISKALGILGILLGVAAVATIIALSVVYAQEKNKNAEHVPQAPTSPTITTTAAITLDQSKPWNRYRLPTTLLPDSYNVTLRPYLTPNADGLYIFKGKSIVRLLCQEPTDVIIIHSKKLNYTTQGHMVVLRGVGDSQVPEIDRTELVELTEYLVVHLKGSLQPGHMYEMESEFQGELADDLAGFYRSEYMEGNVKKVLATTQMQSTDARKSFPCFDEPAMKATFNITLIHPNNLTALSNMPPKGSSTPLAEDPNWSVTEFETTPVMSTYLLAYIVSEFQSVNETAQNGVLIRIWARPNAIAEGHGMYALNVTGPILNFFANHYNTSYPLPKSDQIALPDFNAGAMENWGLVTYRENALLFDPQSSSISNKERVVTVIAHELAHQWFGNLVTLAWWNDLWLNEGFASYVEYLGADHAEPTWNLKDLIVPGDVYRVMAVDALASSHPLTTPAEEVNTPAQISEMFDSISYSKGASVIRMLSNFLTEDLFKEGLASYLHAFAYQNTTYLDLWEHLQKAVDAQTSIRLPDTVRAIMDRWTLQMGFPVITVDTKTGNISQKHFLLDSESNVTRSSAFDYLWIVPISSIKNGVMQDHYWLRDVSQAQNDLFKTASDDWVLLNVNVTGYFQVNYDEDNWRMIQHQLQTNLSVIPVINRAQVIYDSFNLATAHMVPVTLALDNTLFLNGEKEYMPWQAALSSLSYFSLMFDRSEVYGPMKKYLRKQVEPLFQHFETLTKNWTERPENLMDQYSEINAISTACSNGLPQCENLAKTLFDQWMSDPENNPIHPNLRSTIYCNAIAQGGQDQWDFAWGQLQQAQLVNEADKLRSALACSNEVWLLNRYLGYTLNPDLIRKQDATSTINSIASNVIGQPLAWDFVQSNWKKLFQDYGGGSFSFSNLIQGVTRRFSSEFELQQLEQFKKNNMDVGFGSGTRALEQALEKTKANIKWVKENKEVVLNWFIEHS
molecule,measurement,setting,value
N.N.[Cl][Pt][Cl] [cisplatin],gene transduction by targeted phage vectors relative to controls,[1],several fold higher
CC[C@@]1(O)C(=O)OCc2c1cc1n(c2=O)Cc2cc3c(CN(C)C)c(O)ccc3nc2-1 [topotecan],gene transduction by targeted phage vectors relative to controls,[1],several fold higher
CGGREFWLC,frequency,[2],1/42
CGVVSRVGC,frequency,[2],1/42
CHQKPWEC [peptide A],reactivity of serum against peptide in presence of the corresponding synthetic peptide,[3],inhibited
same,ELISA reactivity of patient serum with GST-fusion peptide,[3],strong reactivity
CKDRFERC [peptide B],reactivity of serum against peptide in presence of the corresponding synthetic peptide,[3],inhibited
same,ELISA reactivity of patient serum with GST-fusion peptide,[3],strong reactivity
CLAWVGGRC,frequency,[2],1/42
CNVSDKSC [peptide C],reactivity of serum against peptide in presence of the corresponding synthetic peptide,[3],inhibited
same,ELISA reactivity of patient serum with GST-fusion peptide,[3],strong reactivity
CQGKFSQRC,frequency,[2],1/42
CRVLADRDC,frequency,[2],1/42
CRWSSMIWC,frequency,[2],1/42
CSLQGIVGC,frequency,[2],1/42
CSRSVSRLC,frequency,[2],1/42
CVAADRYVC,frequency,[2],1/42
CVPELGHEC,phage binding to IgG from ovarian cancer patient #2 ascites versus IgG from a normal patient or BSA,[4]; FIG. 22,very high selectivity
same,phage binding to IgGs from patient #2 compared to patient #1 or normal individuals,[4]; FIG. 23,much higher affinity
same,phage binding to serum from patient #2 compared to BSA or normal serum,[4]; FIG. 24,similarly high selectivity
CWSAEWTKC,frequency,[2],4/42
CWSLEFTKC,frequency,[2],5/42
CWSLELLKC,frequency,[2],2/42
CWSLELSKC,frequency,[2],10/42
CWSLESLKC,frequency,[2],4/42
CWSLEVAKC,frequency,[2],5/42
CYGAWRVSC,frequency,[2],1/42
"NGR peptide (Burg et al., 1999)",percent inhibition of angiostatin binding to CD13,[5],> 50%
CWSLEFTKC (not fully specified (bridges); cysteine pairing not given here; also: displayed on phage) [phage displaying CWSLEFTKC],rh-Angio/rhEndo (ratio of colonies recovered),[6],958 ratio
same,rh-Angio/BSA (ratio of colonies recovered),[7],958 ratio
CYGAWRVSC (not fully specified (bridges); cysteine pairing not given here; also: displayed on phage) [phage displaying CYGAWRVSC],rh-Angio/rhEndo (ratio of colonies recovered),[6],6 ratio
same,rh-Angio/BSA (ratio of colonies recovered),[7],14 ratio
CWSAEWTKC (not fully specified (bridges); cysteine pairing not given here; also: displayed on phage) [phage displaying CWSAEWTKC],rh-Angio/rhEndo (ratio of colonies recovered),[6],124 ratio
same,rh-Angio/BSA (ratio of colonies recovered),[7],892 ratio
CRWSSMIWC (not fully specified (bridges); cysteine pairing not given here; also: displayed on phage) [phage displaying CRWSSMIWC],rh-Angio/rhEndo (ratio of colonies recovered),[6],7 ratio
same,rh-Angio/BSA (ratio of colonies recovered),[7],11 ratio
CWSLELLKC (not fully specified (bridges); cysteine pairing not given here; also: displayed on phage) [phage displaying CWSLELLKC],rh-Angio/rhEndo (ratio of colonies recovered),[6],489 ratio
same,rh-Angio/BSA (ratio of colonies recovered),[7],734 ratio
CWSLELSKC (not fully specified (bridges); cysteine pairing not given here; also: displayed on phage) [phage displaying CWSLELSKC],rh-Angio/rhEndo (ratio of colonies recovered),[6],630 ratio
same,rh-Angio/BSA (ratio of colonies recovered),[7],630 ratio
CWSLEVAKC (not fully specified (bridges); cysteine pairing not given here; also: displayed on phage) [phage displaying CWSLEVAKC],rh-Angio/rhEndo (ratio of colonies recovered),[6],486 ratio
same,rh-Angio/BSA (ratio of colonies recovered),[7],1120 ratio
